Results reported in paper PMC12416549 (2024).
Residue numbers refer to the chain shown, from its start. Names and notes keep the numbering of the source.

T1: TNFR1 (Homo sapiens, UniProt P19438)
T1 chain: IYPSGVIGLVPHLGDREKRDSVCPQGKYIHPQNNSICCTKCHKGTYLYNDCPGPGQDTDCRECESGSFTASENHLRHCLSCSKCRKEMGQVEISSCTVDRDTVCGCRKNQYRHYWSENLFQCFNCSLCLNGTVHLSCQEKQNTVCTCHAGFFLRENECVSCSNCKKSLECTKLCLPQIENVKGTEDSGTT

B1: Y50C (designed binder)
chain: SMEEEVEKAAKEYEKKKKEAIEKHLEKLKAKDKEAAERFLKELEEAAKECAKDEAKTMSEEEAKRRAKKYKEKVLLSELSEEEQKEIKEAEEKLVRTILKYVEEAAK
B2: K31N (designed binder)
chain: B1 chain with K31N, C50Y
B3: L43A (designed binder)
chain: B1 chain with L43A, C50Y
B4: A47N (designed binder)
chain: B1 chain with A47N, C50Y
B5: R65Y (designed binder)
chain: B1 chain with C50Y, R65Y
B6: A30M (designed binder)
chain: B1 chain with A30M, C50Y
B7: L79F (designed binder)
chain: B1 chain with C50Y, L79F
B8: T57N (designed binder)
chain: B1 chain with C50Y, T57N
B9: E54G (designed binder)
chain: B1 chain with C50Y, E54G
B10: V102G (designed binder)
chain: B1 chain with C50Y, V102G
B11: K73D (designed binder)
chain: B1 chain with C50Y, K73D
B12: L94P (designed binder)
chain: B1 chain with C50Y, L94P
B13: M58P (designed binder)
chain: B1 chain with C50Y, M58P
B14: E14G (designed binder)
chain: B1 chain with E14G, C50Y
B15: A90T (designed binder)
chain: B1 chain with C50Y, A90T
B16: K29P (designed binder)
chain: B1 chain with K29P, C50Y
B17: A35N (designed binder)
chain: B1 chain with A35N, C50Y
B18: S77V (designed binder)
chain: B1 chain with C50Y, S77V
B19: K93A (designed binder)
chain: B1 chain with C50Y, K93A
B20: E61W (designed binder)
chain: B1 chain with C50Y, E61W
B21: K41G (designed binder)
chain: B1 chain with K41G, C50Y
B22: Y13S (designed binder)
chain: B1 chain with Y13S, C50Y
B23: E22C (designed binder)
chain: B1 chain with E22C, C50Y
B24: E12D (designed binder)
chain: B1 chain with E12D, C50Y
B25: E22Q (designed binder)
chain: B1 chain with E22Q, C50Y
B26: E91Q (designed binder)
chain: B1 chain with C50Y, E91Q
B27: R66Q (designed binder)
chain: B1 chain with C50Y, R66Q
B28: E89N (designed binder)
chain: B1 chain with C50Y, E89N
B29: K52A (designed binder)
chain: B1 chain with C50Y, K52A
B30: S1G (designed binder)
chain: B1 chain with S1G, C50Y
B31: E37D (designed binder)
chain: B1 chain with E37D, C50Y
B32: K107S (designed binder)
chain: B1 chain with C50Y, K107S
B33: E3A (designed binder)
chain: B1 chain with E3A, C50Y
B34: M58G (designed binder)
chain: B1 chain with C50Y, M58G
B35: A51S (designed binder)
chain: B1 chain with C50Y, A51S
B36: A67C (designed binder)
chain: B1 chain with C50Y, A67C
B37: L99P (designed binder)
chain: B1 chain with C50Y, L99P
B38: E5G (designed binder)
chain: B1 chain with E5G, C50Y
B39: V95N (designed binder)
chain: B1 chain with C50Y, V95N
B40: L76P (designed binder)
chain: B1 chain with C50Y, L76P
B41: D32N (designed binder)
chain: B1 chain with D32N, C50Y
B42: E44P (designed binder)
chain: B1 chain with E44P, C50Y
B43: A106L (designed binder)
chain: B1 chain with C50Y, A106L
B44: R96E (designed binder)
chain: B1 chain with C50Y, R96E
B45: S80K (designed binder)
chain: B1 chain with C50Y, S80K
B46: K100E (designed binder)
chain: B1 chain with C50Y, K100E
B47: E89I (designed binder)
chain: B1 chain with C50Y, E89I
B48: L76G (designed binder)
chain: B1 chain with C50Y, L76G
B49: A90C (designed binder)
chain: B1 chain with C50Y, A90C
B50: K27W (designed binder)
chain: B1 chain with K27W, C50Y
B51: E86M (designed binder)
chain: B1 chain with C50Y, E86M
B52: K68S (designed binder)
chain: B1 chain with C50Y, K68S
B53: K88F (designed binder)
chain: B1 chain with C50Y, K88F
B54: R65K (designed binder)
chain: B1 chain with C50Y, R65K
B55: A105C (designed binder)
chain: B1 chain with C50Y, A105C

Target: T1, TNFR1
Assay: yeast display SC50

Question: With B1 as the binder, how does the “apparent Kd (screen)” value read?
Answer: Its value is 0.956 nM.

Question: Which “apparent Kd (screen)” value does the source give for B2 here?
Answer: Its value is 0.79 nM.

Question: With B3 as the binder, how does the “apparent Kd (screen)” value read?
Answer: The value was 0.49 nM.

Question: For B4, which “apparent Kd (screen)” value is on record?
Answer: The value was 1.4 nM.

Question: Which “apparent Kd (screen)” value does the source give for B5 here?
Answer: The value was 11.4 nM.

Question: How did the “apparent Kd (screen)” value turn out when B6 was run?
Answer: The value was 0.593 nM.

Question: B7 was tested. Which “apparent Kd (screen)” value did it give?
Answer: Its value is 2.05 nM.

Question: B8 was tested. Which “apparent Kd (screen)” value did it give?
Answer: The value was 2.05 nM.

Question: B9 was tested. Which “apparent Kd (screen)” value did it give?
Answer: Its value is 11.4 nM.

Question: Which “apparent Kd (screen)” value does the source give for B10 here?
Answer: The value was 0.446 nM.

Question: How did the “apparent Kd (screen)” value turn out when B11 was run?
Answer: Its value is 5.84 nM.

Question: How did the “apparent Kd (screen)” value turn out when B12 was run?
Answer: Its value is 16.7 nM.

Question: For B13, which “apparent Kd (screen)” value is on record?
Answer: The value was 0.653 nM.

Question: How did the “apparent Kd (screen)” value turn out when B14 was run?
Answer: The value was 12.5 nM.

Question: How did the “apparent Kd (screen)” value turn out when B15 was run?
Answer: The value was 0.593 nM.

Question: B16 was tested. Which “apparent Kd (screen)” value did it give?
Answer: Its value is 7.78 nM.

Question: Which “apparent Kd (screen)” value does the source give for B17 here?
Answer: Its value is 1.69 nM.

Question: How did the “apparent Kd (screen)” value turn out when B18 was run?
Answer: Its value is 2.73 nM.

Question: With B19 as the binder, how does the “apparent Kd (screen)” value read?
Answer: The value was 0.79 nM.

Question: With B20 as the binder, how does the “apparent Kd (screen)” value read?
Answer: Its value is 1.86 nM.

Question: Which “apparent Kd (screen)” value does the source give for B21 here?
Answer: Its value is 0.869 nM.

Question: B22 was tested. Which “apparent Kd (screen)” value did it give?
Answer: The value was 0.49 nM.

Question: B23 was tested. Which “apparent Kd (screen)” value did it give?
Answer: Its value is 1.05 nM.

Question: For B24, which “apparent Kd (screen)” value is on record?
Answer: Its value is 1.05 nM.

Question: Which “apparent Kd (screen)” value does the source give for B25 here?
Answer: The value was 0.718 nM.

Question: For B26, which “apparent Kd (screen)” value is on record?
Answer: The value was 11.4 nM.

Question: Which “apparent Kd (screen)” value does the source give for B27 here?
Answer: The value was 11.4 nM.

Question: For B28, which “apparent Kd (screen)” value is on record?
Answer: The value was 0.956 nM.

Question: With B29 as the binder, how does the “apparent Kd (screen)” value read?
Answer: Its value is 0.49 nM.

Question: For B30, which “apparent Kd (screen)” value is on record?
Answer: Its value is 0.653 nM.

Question: With B31 as the binder, how does the “apparent Kd (screen)” value read?
Answer: Its value is 0.539 nM.

Question: For B32, which “apparent Kd (screen)” value is on record?
Answer: Its value is 1.05 nM.

Question: B33 was tested. Which “apparent Kd (screen)” value did it give?
Answer: Its value is 1.86 nM.

Question: For B34, which “apparent Kd (screen)” value is on record?
Answer: Its value is 22.2 nM.

Question: B35 was tested. Which “apparent Kd (screen)” value did it give?
Answer: Its value is 1.86 nM.

Question: B36 was tested. Which “apparent Kd (screen)” value did it give?
Answer: The value was 22.2 nM.

Question: For B37, which “apparent Kd (screen)” value is on record?
Answer: The value was 15.2 nM.

Question: For B38, which “apparent Kd (screen)” value is on record?
Answer: Its value is 0.446 nM.

Question: With B39 as the binder, how does the “apparent Kd (screen)” value read?
Answer: The value was 1.16 nM.

Question: How did the “apparent Kd (screen)” value turn out when B40 was run?
Answer: Its value is 1.54 nM.

Question: With B41 as the binder, how does the “apparent Kd (screen)” value read?
Answer: Its value is 0.79 nM.

Question: B42 was tested. Which “apparent Kd (screen)” value did it give?
Answer: Its value is 6.43 nM.

Question: For B43, which “apparent Kd (screen)” value is on record?
Answer: The value was 2.25 nM.

Question: Which “apparent Kd (screen)” value does the source give for B44 here?
Answer: The value was 4.39 nM.

Question: How did the “apparent Kd (screen)” value turn out when B45 was run?
Answer: The value was 1.54 nM.

Question: How did the “apparent Kd (screen)” value turn out when B46 was run?
Answer: The value was 1.54 nM.

Question: For B47, which “apparent Kd (screen)” value is on record?
Answer: The value was 3 nM.

Question: With B48 as the binder, how does the “apparent Kd (screen)” value read?
Answer: The value was 11.4 nM.

Question: How did the “apparent Kd (screen)” value turn out when B49 was run?
Answer: Its value is 0.593 nM.

Question: Which “apparent Kd (screen)” value does the source give for B50 here?
Answer: The value was 1.16 nM.

Question: B51 was tested. Which “apparent Kd (screen)” value did it give?
Answer: Its value is 0.869 nM.

Question: How did the “apparent Kd (screen)” value turn out when B52 was run?
Answer: Its value is 0.718 nM.

Question: Which “apparent Kd (screen)” value does the source give for B53 here?
Answer: Its value is 0.539 nM.

Question: For B54, which “apparent Kd (screen)” value is on record?
Answer: The value was 0.869 nM.

Question: With B55 as the binder, how does the “apparent Kd (screen)” value read?
Answer: Its value is 1.4 nM.
